Assay results from US20040248785A1.

Assays:
[1] = target: low density lipoprotein receptor-related protein / alpha2-macroglobulin receptor (LRP), isolated from human placenta (human) (UniProt Q07954); assay: homologous displacement of 125I-fVIII (1 nM) by unlabeled fVIII on LRP-coated wells, single class of sites, LIGAND
[2] = target: low density lipoprotein receptor-related protein / alpha2-macroglobulin receptor (LRP), isolated from human placenta (human) (UniProt Q07954); assay: homologous displacement on LRP-coated wells
[3] = target: low density lipoprotein receptor-related protein / alpha2-macroglobulin receptor (LRP), isolated from human placenta (human) (UniProt Q07954); assay: solid-phase homologous ligand displacement: 125I-fVIII (1 nM) on LRP-coated wells, 1 h at 37 C, rising unlabeled fVIII

Chain of low density lipoprotein receptor-related protein / alpha2-macroglobulin receptor (LRP), isolated from human placenta (human) (Q07954 20-4544): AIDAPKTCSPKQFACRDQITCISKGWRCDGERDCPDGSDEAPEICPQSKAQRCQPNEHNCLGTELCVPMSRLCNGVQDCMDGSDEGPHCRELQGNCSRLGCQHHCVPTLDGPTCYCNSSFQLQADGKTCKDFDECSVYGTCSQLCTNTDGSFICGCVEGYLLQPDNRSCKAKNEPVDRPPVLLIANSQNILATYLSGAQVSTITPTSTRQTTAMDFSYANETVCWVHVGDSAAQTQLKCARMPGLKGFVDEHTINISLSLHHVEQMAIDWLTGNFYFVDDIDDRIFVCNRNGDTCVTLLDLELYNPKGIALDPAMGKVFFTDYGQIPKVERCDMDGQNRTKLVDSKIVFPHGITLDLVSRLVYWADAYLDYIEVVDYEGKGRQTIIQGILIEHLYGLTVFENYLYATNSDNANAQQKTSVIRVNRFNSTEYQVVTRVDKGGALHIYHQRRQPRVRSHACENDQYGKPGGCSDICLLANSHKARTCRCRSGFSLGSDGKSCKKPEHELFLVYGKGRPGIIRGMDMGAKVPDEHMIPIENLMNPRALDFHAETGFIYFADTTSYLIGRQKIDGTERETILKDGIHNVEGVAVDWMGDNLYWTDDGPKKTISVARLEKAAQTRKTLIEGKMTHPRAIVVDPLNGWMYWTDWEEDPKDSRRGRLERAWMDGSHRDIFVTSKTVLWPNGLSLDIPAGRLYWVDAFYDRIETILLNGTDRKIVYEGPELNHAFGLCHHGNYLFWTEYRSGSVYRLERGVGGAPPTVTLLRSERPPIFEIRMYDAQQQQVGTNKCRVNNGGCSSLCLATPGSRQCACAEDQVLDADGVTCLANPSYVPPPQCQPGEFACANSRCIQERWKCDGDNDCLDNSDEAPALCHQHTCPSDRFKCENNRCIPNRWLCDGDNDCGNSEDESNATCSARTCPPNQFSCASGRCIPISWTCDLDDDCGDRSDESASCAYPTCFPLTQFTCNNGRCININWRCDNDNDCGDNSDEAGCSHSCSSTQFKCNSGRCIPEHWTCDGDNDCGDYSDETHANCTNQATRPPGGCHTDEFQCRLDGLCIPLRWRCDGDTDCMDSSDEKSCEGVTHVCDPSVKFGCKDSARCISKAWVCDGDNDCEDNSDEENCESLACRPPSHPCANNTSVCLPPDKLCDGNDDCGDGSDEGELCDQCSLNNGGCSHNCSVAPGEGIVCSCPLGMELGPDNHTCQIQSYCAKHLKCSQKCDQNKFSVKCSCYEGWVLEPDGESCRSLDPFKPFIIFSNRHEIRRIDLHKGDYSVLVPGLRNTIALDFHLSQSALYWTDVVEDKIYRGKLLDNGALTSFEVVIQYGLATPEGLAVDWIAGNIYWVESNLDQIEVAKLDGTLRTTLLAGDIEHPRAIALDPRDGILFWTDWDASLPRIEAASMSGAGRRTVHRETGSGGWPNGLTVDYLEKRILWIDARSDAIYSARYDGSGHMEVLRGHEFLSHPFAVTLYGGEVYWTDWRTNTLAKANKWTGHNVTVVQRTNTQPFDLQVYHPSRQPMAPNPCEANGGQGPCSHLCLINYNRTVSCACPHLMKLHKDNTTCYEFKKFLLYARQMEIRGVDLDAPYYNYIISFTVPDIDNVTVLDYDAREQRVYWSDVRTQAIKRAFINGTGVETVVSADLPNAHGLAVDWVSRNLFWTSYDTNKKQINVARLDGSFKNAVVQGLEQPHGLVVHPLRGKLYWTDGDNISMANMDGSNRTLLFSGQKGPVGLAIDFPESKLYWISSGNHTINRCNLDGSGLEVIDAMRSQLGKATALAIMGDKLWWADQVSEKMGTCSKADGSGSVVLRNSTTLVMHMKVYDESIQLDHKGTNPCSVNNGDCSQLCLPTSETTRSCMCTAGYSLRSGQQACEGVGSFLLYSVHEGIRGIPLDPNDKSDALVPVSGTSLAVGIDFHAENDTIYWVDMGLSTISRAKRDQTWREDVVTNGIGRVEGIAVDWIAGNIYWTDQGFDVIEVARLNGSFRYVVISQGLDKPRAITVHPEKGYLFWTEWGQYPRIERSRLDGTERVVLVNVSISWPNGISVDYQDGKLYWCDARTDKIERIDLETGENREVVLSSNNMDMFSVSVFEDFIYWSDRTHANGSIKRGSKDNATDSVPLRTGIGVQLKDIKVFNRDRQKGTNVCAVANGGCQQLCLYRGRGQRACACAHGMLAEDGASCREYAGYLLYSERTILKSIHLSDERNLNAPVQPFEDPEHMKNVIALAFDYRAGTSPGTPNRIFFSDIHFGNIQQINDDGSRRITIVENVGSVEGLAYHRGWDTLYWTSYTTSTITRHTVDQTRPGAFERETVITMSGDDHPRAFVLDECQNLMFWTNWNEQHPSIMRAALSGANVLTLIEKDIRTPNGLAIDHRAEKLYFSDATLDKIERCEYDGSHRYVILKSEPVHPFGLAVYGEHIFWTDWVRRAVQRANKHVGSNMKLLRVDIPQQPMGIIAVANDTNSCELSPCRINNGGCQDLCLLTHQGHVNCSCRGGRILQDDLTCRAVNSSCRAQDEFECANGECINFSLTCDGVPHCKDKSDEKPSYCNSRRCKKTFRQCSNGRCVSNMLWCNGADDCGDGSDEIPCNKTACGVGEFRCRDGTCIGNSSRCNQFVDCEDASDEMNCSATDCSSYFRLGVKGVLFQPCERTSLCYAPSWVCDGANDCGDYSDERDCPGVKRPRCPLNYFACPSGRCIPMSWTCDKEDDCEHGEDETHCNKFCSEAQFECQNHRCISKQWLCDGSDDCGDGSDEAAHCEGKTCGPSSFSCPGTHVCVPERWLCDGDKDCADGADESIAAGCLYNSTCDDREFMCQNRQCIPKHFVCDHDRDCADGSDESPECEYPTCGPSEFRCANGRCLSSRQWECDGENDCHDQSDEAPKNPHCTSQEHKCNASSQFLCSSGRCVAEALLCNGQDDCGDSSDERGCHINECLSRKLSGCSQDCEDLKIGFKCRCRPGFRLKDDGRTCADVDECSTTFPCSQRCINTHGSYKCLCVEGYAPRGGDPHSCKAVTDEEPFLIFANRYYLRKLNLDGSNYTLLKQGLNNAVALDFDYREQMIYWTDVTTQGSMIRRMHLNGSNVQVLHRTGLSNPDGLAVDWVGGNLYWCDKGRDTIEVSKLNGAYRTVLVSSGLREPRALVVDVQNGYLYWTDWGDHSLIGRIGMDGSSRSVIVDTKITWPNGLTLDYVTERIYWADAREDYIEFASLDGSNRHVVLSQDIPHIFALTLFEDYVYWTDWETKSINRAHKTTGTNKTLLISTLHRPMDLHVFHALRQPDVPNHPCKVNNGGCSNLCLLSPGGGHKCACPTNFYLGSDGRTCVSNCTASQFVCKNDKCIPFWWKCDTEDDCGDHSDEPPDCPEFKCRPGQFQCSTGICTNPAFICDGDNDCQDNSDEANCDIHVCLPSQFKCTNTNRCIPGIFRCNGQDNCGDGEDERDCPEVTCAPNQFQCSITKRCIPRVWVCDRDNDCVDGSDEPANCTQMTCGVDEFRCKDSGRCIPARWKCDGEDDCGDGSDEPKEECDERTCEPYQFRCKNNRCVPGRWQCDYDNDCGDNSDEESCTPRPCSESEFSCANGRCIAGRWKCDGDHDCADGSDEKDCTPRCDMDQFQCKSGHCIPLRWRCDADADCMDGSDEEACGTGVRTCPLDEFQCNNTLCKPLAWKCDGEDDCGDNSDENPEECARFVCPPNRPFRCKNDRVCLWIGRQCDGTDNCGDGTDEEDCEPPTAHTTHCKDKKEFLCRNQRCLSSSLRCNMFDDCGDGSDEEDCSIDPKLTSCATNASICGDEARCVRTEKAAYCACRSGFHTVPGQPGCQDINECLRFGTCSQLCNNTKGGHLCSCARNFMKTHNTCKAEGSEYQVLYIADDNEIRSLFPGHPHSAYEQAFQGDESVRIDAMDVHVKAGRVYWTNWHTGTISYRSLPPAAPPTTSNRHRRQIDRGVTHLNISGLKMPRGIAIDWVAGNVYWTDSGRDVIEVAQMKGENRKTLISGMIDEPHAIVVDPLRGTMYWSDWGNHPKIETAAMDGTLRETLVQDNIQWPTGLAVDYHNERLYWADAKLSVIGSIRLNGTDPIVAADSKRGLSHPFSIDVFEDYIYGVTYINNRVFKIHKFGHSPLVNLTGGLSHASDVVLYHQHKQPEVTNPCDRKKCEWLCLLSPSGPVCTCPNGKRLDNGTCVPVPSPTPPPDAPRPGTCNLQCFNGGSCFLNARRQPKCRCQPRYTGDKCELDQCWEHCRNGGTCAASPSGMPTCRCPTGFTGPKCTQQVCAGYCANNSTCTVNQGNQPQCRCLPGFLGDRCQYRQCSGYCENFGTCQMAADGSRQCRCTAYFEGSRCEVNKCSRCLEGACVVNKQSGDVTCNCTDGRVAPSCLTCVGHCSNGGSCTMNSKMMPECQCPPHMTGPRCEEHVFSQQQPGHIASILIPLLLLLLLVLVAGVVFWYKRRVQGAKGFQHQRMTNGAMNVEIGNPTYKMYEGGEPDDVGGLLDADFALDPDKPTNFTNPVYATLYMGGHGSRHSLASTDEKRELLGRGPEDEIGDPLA

Kd [1]: 116 nM | percent of 125I-fVIII binding competed by an excess of unlabeled fVIII [2]: > 90% | IC50 (read off the curve) [3]: 100 nM
Substance: factor VIII (fVIII), purified from therapeutic concentrates of Method M, American Red Cross, P00451 20-1667; P00451 1668-2351
